The target in test [1] is 246.F3 Env N276D (pseudovirus made in Expi293F) (HIV-1 (subtype AC, 246.F3)).
For test [2], the target named is 246.F3 Env N276K (pseudovirus) (HIV-1 (subtype AC, 246.F3)).
Test [3] deals with 246.F3 Env, wild type (pseudovirus 246.F3-SG3 WT) (HIV-1 (subtype AC, 246.F3)).
In test [4] the target is Env of the infectious molecular clone 246.F3-NL4.3+BN (HIV-1 (NL4.3) | HIV-1 (subtype AC, 246.F3)).

The values that follow come from article PMC13185609.

VRC01 (antibody): in test [1], the neutralisation of pseudovirus made in Expi293F cells, TZM-bl cells; fold change in sensitivity against wild-type 246.F3 was 5 fold. Moreover, the IC50 of neutralisation of pseudovirus, TZM-bl cells (highest concentration tested 50 µg/mL) in test [2] was > 50 µg/mL. This substance yielded an IC50 of neutralisation of pseudovirus, TZM-bl cells in test [3] of 0.204 µg/mL. In test [4], this substance came in with an IC50 of neutralisation of the 246.F3-NL4.3+BN virus stock, TZM-bl cells of 0.35 µg/mL and an IC80 of neutralisation of the 246.F3-NL4.3+BN virus stock, TZM-bl cells of 0.85 µg/mL.
